Read-outs that look alike come from different tables or passages of the source. Values belong to the binder of their own block, whether it stands above or below them.
Tests used:
[1] = molecular target: T1, mouse CD40 (mouse, UniProt P27512 20-193, limits assumed); assay: CD40 binding, format not stated
T1 construct: also called murine CD40
T1 sequence (looked up): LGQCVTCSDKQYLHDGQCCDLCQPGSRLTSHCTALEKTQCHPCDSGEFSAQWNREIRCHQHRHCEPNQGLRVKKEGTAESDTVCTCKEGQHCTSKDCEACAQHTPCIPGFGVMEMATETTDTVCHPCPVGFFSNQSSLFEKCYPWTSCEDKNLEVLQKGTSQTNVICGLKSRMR

[2] = molecular target: T2, MSLN (Table 10-1); assay: MSLN binding, format not stated
T2 chain: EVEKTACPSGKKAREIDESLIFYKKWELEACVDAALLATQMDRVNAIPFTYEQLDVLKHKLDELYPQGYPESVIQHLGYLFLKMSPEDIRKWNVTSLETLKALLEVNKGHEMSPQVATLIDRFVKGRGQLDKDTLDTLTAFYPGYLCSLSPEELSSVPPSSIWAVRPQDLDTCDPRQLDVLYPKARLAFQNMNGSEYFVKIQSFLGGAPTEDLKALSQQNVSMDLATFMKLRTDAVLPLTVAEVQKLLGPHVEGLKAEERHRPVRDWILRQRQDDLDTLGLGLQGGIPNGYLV

[3] = molecular target: T3, human CD40 on cells (HEK293 stable transfectants, HEK-Blue CD40 cells, human B cells, monocytic cells, … (human, UniProt P25942 21-277)); assay: cell-based or functional assay
T3 sequence (P25942 21-277 limits assumed): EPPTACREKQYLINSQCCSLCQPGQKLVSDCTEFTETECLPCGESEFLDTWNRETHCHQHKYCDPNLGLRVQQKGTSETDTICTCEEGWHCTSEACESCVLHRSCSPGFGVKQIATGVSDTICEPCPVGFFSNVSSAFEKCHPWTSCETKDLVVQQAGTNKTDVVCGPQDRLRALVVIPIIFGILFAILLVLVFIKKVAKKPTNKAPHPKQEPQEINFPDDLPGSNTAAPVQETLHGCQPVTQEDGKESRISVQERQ

[4] = molecular target: T3, human CD40 on cells (HEK293 stable …); assay: CD40 occupancy on B cells, -MSLN (n = 3)
[5] = molecular target: T4, soluble form of the extracellular domain of human CD40 (Creative BioMart) (human, UniProt P25942 21-193); assay: SPR
T4 construct: Bought
T4 sequence (P25942 21-193 limits assumed): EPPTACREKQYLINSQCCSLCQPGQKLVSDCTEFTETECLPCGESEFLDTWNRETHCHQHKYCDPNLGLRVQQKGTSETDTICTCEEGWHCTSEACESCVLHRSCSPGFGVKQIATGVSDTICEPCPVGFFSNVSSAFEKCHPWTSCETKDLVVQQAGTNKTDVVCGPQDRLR

[6] = molecular target: T5, cynomolgus mesothelin (cynomolgus); assay: SPR
T5 construct: also called cynoMSLN; Cyno MSLN

[7] = molecular target: T6, soluble form of the extracellular domain of cynomolgus (cyno) CD40 (Creative BioMart) (cynomolgus, UniProt G7PG38 21-193); assay: SPR
T6 construct: extracellular domain; also called Cynomolgus CD40

[8] = molecular target: T7, human mesothelin (human, UniProt Q13421 296-580, limits assumed); assay: SPR
T7 construct: also called Human MSLN

[9] = molecular target: T4, soluble form of the extracellular …; assay: SPR; remark: listed apart in the source
[10] = molecular target: T7, human mesothelin; assay: SPR; remark: listed apart in the source
[11] = molecular target: T5, cynomolgus mesothelin; assay: SPR; remark: listed apart in the source
[12] = molecular target: T6, soluble form of the extracellular …; assay: SPR, fast kinetics
[13] = molecular target: T3, human CD40 on cells (HEK293 stable …); assay: cell-based or functional assay; remark: listed apart in the source
[14] = molecular target: T6, soluble form of the extracellular …; assay: SPR; remark: listed apart in the source
[15] = molecular target: T1, mouse CD40; assay: FACS
[16] = molecular target: T8, dog CD40 (dog, UniProt Q7YRL5 21-194, limits assumed); assay: FACS
T8 sequence (looked up): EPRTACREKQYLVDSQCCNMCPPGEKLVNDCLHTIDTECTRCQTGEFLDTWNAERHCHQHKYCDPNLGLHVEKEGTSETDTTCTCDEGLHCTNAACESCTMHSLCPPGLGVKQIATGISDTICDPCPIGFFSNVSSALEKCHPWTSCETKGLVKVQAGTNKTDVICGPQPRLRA

[17] = molecular target: T3, human CD40 on cells (HEK293 stable …); assay: FACS, HEK293 transfectants

EC50 [1]: 2.75 µg/mL
EC50 [2]: 1.39 µg/mL
B1: LB-1 (bispecific antibody, mouse IgG1)
chain: EVQLVESGGGLVQPGRSLKLSCAASGFTFSNYDMAWVRQAPTKGLEWVASISPSGGRTYYRDSVKGRFTVSRDNAKSTLYLQMDSLRSEDTATYYCARHDGSYFDYWGQGVMVTVSSDLSGGGGSGGGGSGGGGSGGGGSTGDTVLTQSPALAVSPGERVTISCRASESVSTLMHWYQQKPGQQPKLLIYLASHLESGVPARFSGSGSGTDFTLTIDPVEADDTATYYCQESWNDPWTFGGGTKLELKRLEVPRDSGSKPCICTVPEVSSVFIFPPKPKDVLTITLTPKVTCVVVDISKDDPEVQFSWFVDDVEVHTAQTQPREEQFNSTFRSVSELPIMHQDWLNGKEFKCRVNSAAFPAPIEKTISKTKGRPKAPQVYTIPPPKEQMAKDKVSLTCMITDFFPEDITVEWQWNGQPAENYKNTQPIMDTDGSYFVYSKLNVQKSNWEAGNTFTCSVLHEGLHNHHTEKSLSHSPGKVDGASSPVNVSSPSVQDIQVQLVQSGAEVKKPGASVKVSCKASGYTFTGNYINWVRQAPGQGLEWMGIINPTKGWTLYAQKFQGRVTMTRDTSISTAYMELSSLRSEDTAVYYCARWHHGTWIFDYWGQGTLVTVSSDLSGGGGSGGGGSGGGGSGGGGSTGDIVLTQPPSVSGAPGQRVTISCSGSSSNIGSNYVSWYQQLPGTAPKLLIYNDNQRPSGVPDRFSGSKSGTSASLAITGLQSEDEADYYCSTYDRRTFSVFGGGTKLTVLG
notes: 1C10 scFv (VH→VL), murine IgG1 hinge-CH2-CH3, MOR06626 scFv (VH→VL); also called mouse bispecific formula (I) protein LB-1

B-cell CD23 EC50, +MSLN [3]: 2.5 nM
B-cell CD23 EC50, -MSLN [3]: 1.4 nM
B-cell CD86 EC50, +MSLN [3]: 0.7 nM
B-cell CD86 EC50, -MSLN [3]: 0.35 nM
B-cell proliferation EC50, +MSLN [3]: 12 nM
B-cell proliferation EC50, -MSLN [3]: 4.5 nM
moDC CD83 EC50, +MSLN [3]: 6.9 nM
moDC CD83 EC50, -MSLN [3]: 2 nM
moDC IL-12p70 EC50, +MSLN [3]: 3.4 nM
moDC IL-12p70 EC50, -MSLN [3]: 12.4 nM
EC50 [4]: 4.1 nM
B2: huAb9 A2I (antibody, human IgG1, kappa)
heavy: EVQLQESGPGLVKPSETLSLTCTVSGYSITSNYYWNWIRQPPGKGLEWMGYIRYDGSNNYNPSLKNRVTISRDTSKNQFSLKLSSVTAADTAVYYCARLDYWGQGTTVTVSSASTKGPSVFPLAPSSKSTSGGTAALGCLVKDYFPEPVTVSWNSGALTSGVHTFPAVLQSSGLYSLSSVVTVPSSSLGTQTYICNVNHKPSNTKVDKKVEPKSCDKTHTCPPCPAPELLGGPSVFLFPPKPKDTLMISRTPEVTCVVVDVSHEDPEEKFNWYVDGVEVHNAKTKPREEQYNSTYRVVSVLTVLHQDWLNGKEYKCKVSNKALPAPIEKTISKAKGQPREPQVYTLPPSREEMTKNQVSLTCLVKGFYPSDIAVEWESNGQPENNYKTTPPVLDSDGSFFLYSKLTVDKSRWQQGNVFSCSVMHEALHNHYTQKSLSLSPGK
light: DIVMTQTPLSLSVTPGQPASISCRSSQSLENTNGNTFLNWYLQKPGQSPQLLIYRVSNRFSGVPDRFSGSGSGTDFTLKISRVEAEDVGVYYCLQVTHVPFTFGQGTKLEIKRTVAAPSVFIFPPSDEQLKSGTASVVCLLNNFYPREAKVQWKVDNALQSGNSQESVTEQDSKDSTYSLSSTLTLSKADYEKHKVYACEVTHQGLSSPVTKSFNRGEC
notes: human IgG1 V273E

Kd [5]: < 400 nM
Kd [6]: ≤ 0.29 nM
Kd [7]: < 150 nM
Kd [8]: < 400 nM
Kd [9]: 390 nM
koff [9]: 0.26 s⁻¹
kon [9]: 680000 M⁻¹ s⁻¹
Kd [10]: 0.47 nM
koff [10]: 2.4e-05 s⁻¹
kon [10]: 52000 M⁻¹ s⁻¹
Kd [11]: 0.23 nM
koff [11]: 7.1e-05 s⁻¹
kon [11]: 310000 M⁻¹ s⁻¹
Kd [12]: 150 nM
Max. IL-12p70, dendritic cells with cell-surface mesothelin [13]: 100 pg/mL
B3: CF1 (bispecific antibody, human IgG1, lambda)
heavy: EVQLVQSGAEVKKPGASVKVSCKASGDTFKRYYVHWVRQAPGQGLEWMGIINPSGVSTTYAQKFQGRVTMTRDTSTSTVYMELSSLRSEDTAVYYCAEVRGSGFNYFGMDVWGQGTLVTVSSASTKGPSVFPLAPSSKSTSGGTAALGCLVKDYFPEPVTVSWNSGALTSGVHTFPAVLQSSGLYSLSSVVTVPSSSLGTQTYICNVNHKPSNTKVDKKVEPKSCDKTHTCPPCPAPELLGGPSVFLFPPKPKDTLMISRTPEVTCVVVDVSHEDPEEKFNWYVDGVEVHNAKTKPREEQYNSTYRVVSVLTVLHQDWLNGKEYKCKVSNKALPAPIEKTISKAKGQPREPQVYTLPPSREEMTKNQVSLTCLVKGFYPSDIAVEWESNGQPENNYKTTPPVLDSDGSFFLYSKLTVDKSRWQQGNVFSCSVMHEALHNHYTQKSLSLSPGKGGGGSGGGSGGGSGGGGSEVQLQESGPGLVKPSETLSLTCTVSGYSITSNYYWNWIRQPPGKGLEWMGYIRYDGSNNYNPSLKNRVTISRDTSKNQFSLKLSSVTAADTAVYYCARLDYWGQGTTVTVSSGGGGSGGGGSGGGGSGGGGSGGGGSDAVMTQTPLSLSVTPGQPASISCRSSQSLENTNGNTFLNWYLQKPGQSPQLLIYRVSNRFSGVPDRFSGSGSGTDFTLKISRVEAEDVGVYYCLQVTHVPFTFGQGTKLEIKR
light: SYELTQPPSVSVSPGQTASITCSGDKLGDKYASWYQQKPGQSPVLVIYQDNRRPSGIPERFSGSNSGNTATLTISGTQAMDEADYYCQAWDSDTYVFGTGTKVTVLGQPKAAPSVTLFPPSSEELQANKATLVCLISDFYPGAVTVAWKADSSPVKAGVETTTPSKQSNNKYAASSYLSLTPEQWKSHRSYSCQVTHEGSTVEKTVAPTECS
notes: IgG-scFv: HuAM15 Fab, IgG1 V273E, CD40 scFv

Kd [5]: < 400 nM
Kd [6]: ≤ 0.29 nM
Kd [7]: < 150 nM
Kd [8]: < 400 nM
Kd [9]: 14 nM
koff [9]: 0.0096 s⁻¹
kon [9]: 690000 M⁻¹ s⁻¹
Kd [10]: 0.59 nM
koff [10]: 3.1e-05 s⁻¹
kon [10]: 52000 M⁻¹ s⁻¹
Kd [11]: 0.29 nM
koff [11]: 8.2e-05 s⁻¹
kon [11]: 280000 M⁻¹ s⁻¹
Kd [14]: 8.3 nM
koff [14]: 0.011 s⁻¹
kon [14]: 1.3e+06 M⁻¹ s⁻¹
Max. IL-12p70, dendritic cells with cell-surface mesothelin [13]: 75 pg/mL
B4: CF3 (bispecific antibody, human IgG1, lambda)
heavy: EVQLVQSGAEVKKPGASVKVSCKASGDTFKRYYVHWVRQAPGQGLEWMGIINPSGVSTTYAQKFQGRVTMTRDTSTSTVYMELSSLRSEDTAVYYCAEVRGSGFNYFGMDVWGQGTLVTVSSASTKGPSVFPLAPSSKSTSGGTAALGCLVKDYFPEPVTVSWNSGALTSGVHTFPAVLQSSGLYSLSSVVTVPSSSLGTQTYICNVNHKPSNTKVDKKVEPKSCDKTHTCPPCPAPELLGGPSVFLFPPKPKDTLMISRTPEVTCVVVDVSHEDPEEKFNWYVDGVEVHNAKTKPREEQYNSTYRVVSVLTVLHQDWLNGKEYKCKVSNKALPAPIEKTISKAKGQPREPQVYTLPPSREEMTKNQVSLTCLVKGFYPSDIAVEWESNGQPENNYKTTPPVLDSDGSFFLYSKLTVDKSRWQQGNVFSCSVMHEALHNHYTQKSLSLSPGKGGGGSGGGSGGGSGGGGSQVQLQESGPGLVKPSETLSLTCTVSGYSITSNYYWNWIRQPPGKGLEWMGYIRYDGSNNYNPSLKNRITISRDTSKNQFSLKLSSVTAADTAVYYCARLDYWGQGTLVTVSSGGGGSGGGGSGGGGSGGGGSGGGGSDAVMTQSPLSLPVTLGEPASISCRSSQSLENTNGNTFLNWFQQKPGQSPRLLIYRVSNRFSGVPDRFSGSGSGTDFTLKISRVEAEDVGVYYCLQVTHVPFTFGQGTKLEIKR
light: B3 light
notes: IgG-scFv

binding result [15]: no binding
binding result [16]: no binding
binding result [17]: binds
B5: huAb8-2 (antibody, human IgG1, V domains shown)
VH: EVQLVQSGAEVKKPGSSVKVSCKASGYTFTDYYINWVRQAPGQGLEWIGWIFPGSGSVYSNEQFKGRATLTVDRSTSTAYMELSSLRSEDTAVYFCASSLGKFAYWGQGTLVTVSS
VL: DIQMTQSPSSLSASVGDRVTITCKASQSVVTAVAWYQQKPGKSPKLLIYSASNRYTGVPSRFSGSGSGTDFTLTISSLQPEDFATYFCQQYSSYPYTFGGGTKVEIK
notes: human IgG1, kappa

EC50 [1]: 0.21 µg/mL
B6: anti-CD40 antibody (1C10 mIgG1) (antibody, V domains shown)
VH: EVQLVESGGGLVQPGRSLKLSCAASGFTFSNYDMAWVRQAPTKGLEWVASISPSGGRTYYRDSVKGRFTVSRDNAKSTLYLQMDSLRSEDTATYYCARHDGSYFDYWGQGVMVTVSS
VL: DTVLTQSPALAVSPGERVTISCRASESVSTLMHWYQQKPGQQPKLLIYLASHLESGVPARFSGSGSGTDFTLTIDPVEADDTATYYCQESWNDPWTFGGGTKLELK
notes: murine IgG1
